T1: PUF4 RNA-binding domain (Saccharomyces cerevisiae, UniProt P25339 537-888)
T1 sequence: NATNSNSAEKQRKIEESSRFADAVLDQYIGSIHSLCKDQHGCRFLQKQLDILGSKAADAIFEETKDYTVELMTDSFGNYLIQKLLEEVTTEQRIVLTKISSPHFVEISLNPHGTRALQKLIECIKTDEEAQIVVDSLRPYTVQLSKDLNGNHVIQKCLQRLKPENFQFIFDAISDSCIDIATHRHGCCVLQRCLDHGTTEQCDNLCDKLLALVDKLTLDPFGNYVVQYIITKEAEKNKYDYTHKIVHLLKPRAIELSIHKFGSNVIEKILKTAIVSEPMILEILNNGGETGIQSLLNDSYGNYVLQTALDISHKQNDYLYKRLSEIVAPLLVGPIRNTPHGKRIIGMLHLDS


target: T1, PUF4 RNA-binding domain; test: Mg; RNA-MaP; 20 mM Na-HEPES pH 7.4, 30 mM KOAc, 0.75 mM MgCl2, 0.1% Tween-20, 5% glycerol, 0.1 mg/mL BSA, 2 mM DTT; 25 C; 0.0125-409.6 nM protein; conditions: tags: N-His6-TEV cleaved; C-SNAP kept, Cy3B-labelled; label: tethered on chip by stalled RNA polymerase

Binder	Kd [nM]
Ie_S2_P4E.1_K4.1_C4.1_H4.1_[+1T]_A4.1_F4.1_T4.1 (ssRNA) RNA: UUUGAUUAAUAUGAUAUCGUUCUUUCUUUGUAUAUUAUUCUUUCUCGAUAUCAUAUUAAUCUUU	0.232
Ie_S2_P3E.2_K3.1_C3.2_H3.1_[+4CTCT]_A3.1_F3.1_T3.2 (ssRNA) RNA: UUUGAUUAAUAUGAUAUCGUUCUUUCUCUUGUACUCUUAUAUAUUCUUUCUCGAUAUCAUAUUAAUCUUU	3.27
Ie_S2_P3E.2_K3.1_C3.2_H3.1_A3.1_F3.1_[+8TTCC]_T3.2 (ssRNA) RNA: UUUGAUUAAUAUGAUAUCGUUCUUUCUCUUGUAUAUAUUCCUAUUCUUUCUCGAUAUCAUAUUAAUCUUU	2.56
Ie_S2_P3E.2_K3.1_C3.2_H3.1_[+4CCCT]_A3.1_F3.1_T3.2 (ssRNA) RNA: UUUGAUUAAUAUGAUAUCGUUCUUUCUCUUGUACCCUUAUAUAUUCUUUCUCGAUAUCAUAUUAAUCUUU	2.61
Ie_S2_P3E.2_K3.1_C3.2_H3.1_[+4CCTC]_A3.1_F3.1_T3.2 (ssRNA) RNA: UUUGAUUAAUAUGAUAUCGUUCUUUCUCUUGUACCUCUAUAUAUUCUUUCUCGAUAUCAUAUUAAUCUUU	4.82
Ie_S2_P3E.2_K3.1_C3.2_H3.1_A3.1_F3.1_[+8TCTC]_T3.2 (ssRNA) RNA: UUUGAUUAAUAUGAUAUCGUUCUUUCUCUUGUAUAUAUCUCUAUUCUUUCUCGAUAUCAUAUUAAUCUUU	3.5
Ie_S2_P3E.2_K3.1_C3.2_H3.1_A3.1_F3.1_[+8CCTC]_T3.2 (ssRNA) RNA: UUUGAUUAAUAUGAUAUCGUUCUUUCUCUUGUAUAUACCUCUAUUCUUUCUCGAUAUCAUAUUAAUCUUU	4.3
Ie_S2_P4E.1_K4.1_C4.1_H4.1_[+1TC]_A4.1_F4.1_T4.1 (ssRNA) RNA: UUUGAUUAAUAUGAUAUCGUUCUUUCUUUCGUAUAUUAUUCUUUCUCGAUAUCAUAUUAAUCUUU	8.48
Ie_S2_P3E.2_K3.1_C3.2_H3.1_A3.1_[+5C]_F3.1_T3.2 (ssRNA) RNA: UUUGAUUAAUAUGAUAUCGUUCUUUCUCUUGUAUCAUAUAUUCUUUCUCGAUAUCAUAUUAAUCUUU	0.639
Ie_S2_P3E.2_K3.1_C3.2_H3.1_A3.1_F3.1_[+8T]_T3.2 (ssRNA) RNA: UUUGAUUAAUAUGAUAUCGUUCUUUCUCUUGUAUAUAUUAUUCUUUCUCGAUAUCAUAUUAAUCUUU	1.66
Ie_S2_P3E.2_K3.1_C3.2_H3.1_A3.1_[+6C]_F3.1_T3.2 (ssRNA) RNA: UUUGAUUAAUAUGAUAUCGUUCUUUCUCUUGUAUACUAUAUUCUUUCUCGAUAUCAUAUUAAUCUUU	0.437
Ie_S2_P3E.2_K3.1_C3.2_H3.1_A3.1_F3.1_[+7C]_T3.2 (ssRNA) RNA: UUUGAUUAAUAUGAUAUCGUUCUUUCUCUUGUAUAUCAUAUUCUUUCUCGAUAUCAUAUUAAUCUUU	5.11
Ie_S2_P3E.2_K3.1_C3.2_H3.1_A3.1_F3.1_[+8C]_T3.2 (ssRNA) RNA: UUUGAUUAAUAUGAUAUCGUUCUUUCUCUUGUAUAUACUAUUCUUUCUCGAUAUCAUAUUAAUCUUU	2.93
Ie_S2_P3E.2_K3.1_C3.2_H3.1_A3.1_F3.1_[+8CCTCT]_T3.2 (ssRNA) RNA: UUUGAUUAAUAUGAUAUCGUUCUUUCUCUUGUAUAUACCUCUUAUUCUUUCUCGAUAUCAUAUUAAUCUUU	4.17
Ie_S2_P3E.2_K3.1_C3.2_H3.1_[+4CCCTT]_A3.1_F3.1_T3.2 (ssRNA) RNA: UUUGAUUAAUAUGAUAUCGUUCUUUCUCUUGUACCCUUUAUAUAUUCUUUCUCGAUAUCAUAUUAAUCUUU	6.09
Ie_S2_P3E.2_K3.1_C3.2_H3.1_A3.1_F3.1_[+8CTCTC]_T3.2 (ssRNA) RNA: UUUGAUUAAUAUGAUAUCGUUCUUUCUCUUGUAUAUACUCUCUAUUCUUUCUCGAUAUCAUAUUAAUCUUU	5.38
Ie_S2_P3E.2_K3.1_C3.2_H3.1_A3.1_F3.1_[+8CCCTT]_T3.2 (ssRNA) RNA: UUUGAUUAAUAUGAUAUCGUUCUUUCUCUUGUAUAUACCCUUUAUUCUUUCUCGAUAUCAUAUUAAUCUUU	3.77
Ie_S2_P3E.2_K3.1_C3.2_H3.1_A3.1_F3.1_[+8TCTCT]_T3.2 (ssRNA) RNA: UUUGAUUAAUAUGAUAUCGUUCUUUCUCUUGUAUAUAUCUCUUAUUCUUUCUCGAUAUCAUAUUAAUCUUU	3.44
Ie_S2_P3E.2_K3.1_C3.2_H3.1_A3.1_F3.1_[+8TTCCT]_T3.2 (ssRNA) RNA: UUUGAUUAAUAUGAUAUCGUUCUUUCUCUUGUAUAUAUUCCUUAUUCUUUCUCGAUAUCAUAUUAAUCUUU	2.02
Ie_S2_P4E.1_K4.1_C4.1_H4.1_[+1CCT]_A4.1_F4.1_T4.1 (ssRNA) RNA: UUUGAUUAAUAUGAUAUCGUUCUUUCUUCCUGUAUAUUAUUCUUUCUCGAUAUCAUAUUAAUCUUU	0.245
Ie_S2_P4E.1_K4.1_C4.1_H4.1_[+1CTT]_A4.1_F4.1_T4.1 (ssRNA) RNA: UUUGAUUAAUAUGAUAUCGUUCUUUCUUCUUGUAUAUUAUUCUUUCUCGAUAUCAUAUUAAUCUUU	0.196
Ie_S2_P4E.1_K4.1_C4.1_H4.1_[+1TTC]_A4.1_F4.1_T4.1 (ssRNA) RNA: UUUGAUUAAUAUGAUAUCGUUCUUUCUUUUCGUAUAUUAUUCUUUCUCGAUAUCAUAUUAAUCUUU	7.09

Binder	Kd [nM]
Ie_S2_P4E.1_K4.1_C4.1_H4.1_[+1TCT]_A4.1_F4.1_T4.1 (ssRNA) RNA: UUUGAUUAAUAUGAUAUCGUUCUUUCUUUCUGUAUAUUAUUCUUUCUCGAUAUCAUAUUAAUCUUU	0.234
Ic_S2_P3E.1_K3.1_C3.1_H3.1_A3.1_[T5C]_F3.1_[A8G]_T3.1 (ssRNA) RNA: UUUGAUUAAUAUGAUAUCGUUCUUUCUUGUACAUGUUCUUUCUCGAUAUCAUAUUAAUCUUU	10.4
Ic_S2_P3E.1_K3.1_C3.1_H3.1_A3.1_[T5C]_F3.1_[A8C]_T3.1 (ssRNA) RNA: UUUGAUUAAUAUGAUAUCGUUCUUUCUUGUACAUCUUCUUUCUCGAUAUCAUAUUAAUCUUU	11.1
Ib_S2_P3E.1_K3.1_C3.1_H3.1_A3.1_[T5C]_F3.1_[A8T]_T3.1 (ssRNA) RNA: UUUGAUUAAUAUGAUAUCGUUCUUUCUUGUACAUUUUCUUUCUCGAUAUCAUAUUAAUCUUU	1.62
Ic_S2_P3E.1_K3.1_C3.1_H3.1_A3.1_[A6G]_F3.1_[A8G]_T3.1 (ssRNA) RNA: UUUGAUUAAUAUGAUAUCGUUCUUUCUUGUAUGUGUUCUUUCUCGAUAUCAUAUUAAUCUUU	44.9
Ia_S2_P3E.1_K3.1_C3.1_H3.1_[G2T]_A3.1_F3.1_T3.1 (ssRNA) RNA: UUUGAUUAAUAUGAUAUCGUUCUUUCUUUUAUAUAUUCUUUCUCGAUAUCAUAUUAAUCUUU	366
Ie_S2_P3E.2_K3.1_C3.2_H3.1_A3.1_[+5CC]_F3.1_T3.2 (ssRNA) RNA: UUUGAUUAAUAUGAUAUCGUUCUUUCUCUUGUAUCCAUAUAUUCUUUCUCGAUAUCAUAUUAAUCUUU	7.04
Ie_S2_P3E.2_K3.1_C3.2_H3.1_A3.1_F3.1_[+8TT]_T3.2 (ssRNA) RNA: UUUGAUUAAUAUGAUAUCGUUCUUUCUCUUGUAUAUAUUUAUUCUUUCUCGAUAUCAUAUUAAUCUUU	1.56
Ie_S2_P3E.2_K3.1_C3.2_H3.1_A3.1_F3.1_[+8CT]_T3.2 (ssRNA) RNA: UUUGAUUAAUAUGAUAUCGUUCUUUCUCUUGUAUAUACUUAUUCUUUCUCGAUAUCAUAUUAAUCUUU	3.03
Ie_S2_P3E.2_K3.1_C3.2_H3.1_A3.1_F3.1_[+7CC]_T3.2 (ssRNA) RNA: UUUGAUUAAUAUGAUAUCGUUCUUUCUCUUGUAUAUCCAUAUUCUUUCUCGAUAUCAUAUUAAUCUUU	17.5
Ie_S2_P3E.2_K3.1_C3.2_H3.1_A3.1_F3.1_[+7CT]_T3.2 (ssRNA) RNA: UUUGAUUAAUAUGAUAUCGUUCUUUCUCUUGUAUAUCUAUAUUCUUUCUCGAUAUCAUAUUAAUCUUU	3.3
Ie_S2_P3E.2_K3.1_C3.2_H3.1_A3.1_F3.1_[+8TC]_T3.2 (ssRNA) RNA: UUUGAUUAAUAUGAUAUCGUUCUUUCUCUUGUAUAUAUCUAUUCUUUCUCGAUAUCAUAUUAAUCUUU	2.05
Ie_S2_P3E.2_K3.1_C3.2_H3.1_A3.1_F3.1_[+7CCC]_T3.2 (ssRNA) RNA: UUUGAUUAAUAUGAUAUCGUUCUUUCUCUUGUAUAUCCCAUAUUCUUUCUCGAUAUCAUAUUAAUCUUU	19.5
Ie_S2_P3E.2_K3.1_C3.2_H3.1_A3.1_F3.1_[+7TTC]_T3.2 (ssRNA) RNA: UUUGAUUAAUAUGAUAUCGUUCUUUCUCUUGUAUAUUUCAUAUUCUUUCUCGAUAUCAUAUUAAUCUUU	9.85
Ie_S2_P3E.2_K3.1_C3.2_H3.1_A3.1_F3.1_[+7CTC]_T3.2 (ssRNA) RNA: UUUGAUUAAUAUGAUAUCGUUCUUUCUCUUGUAUAUCUCAUAUUCUUUCUCGAUAUCAUAUUAAUCUUU	14
Ie_S2_P3E.2_K3.1_C3.2_H3.1_A3.1_F3.1_[+8TCC]_T3.2 (ssRNA) RNA: UUUGAUUAAUAUGAUAUCGUUCUUUCUCUUGUAUAUAUCCUAUUCUUUCUCGAUAUCAUAUUAAUCUUU	2.84
Ie_S2_P3E.2_K3.1_C3.2_H3.1_A3.1_F3.1_[+8CCC]_T3.2 (ssRNA) RNA: UUUGAUUAAUAUGAUAUCGUUCUUUCUCUUGUAUAUACCCUAUUCUUUCUCGAUAUCAUAUUAAUCUUU	7.81
Ie_S2_P3E.2_K3.1_C3.2_H3.1_A3.1_F3.1_[+8TCT]_T3.2 (ssRNA) RNA: UUUGAUUAAUAUGAUAUCGUUCUUUCUCUUGUAUAUAUCUUAUUCUUUCUCGAUAUCAUAUUAAUCUUU	2.19
Ie_S2_P3E.2_K3.1_C3.2_H3.1_A3.1_F3.1_[+8CCT]_T3.2 (ssRNA) RNA: UUUGAUUAAUAUGAUAUCGUUCUUUCUCUUGUAUAUACCUUAUUCUUUCUCGAUAUCAUAUUAAUCUUU	2.8
Ie_S2_P3E.2_K3.1_C3.2_H3.1_A3.1_F3.1_[+7TCC]_T3.2 (ssRNA) RNA: UUUGAUUAAUAUGAUAUCGUUCUUUCUCUUGUAUAUUCCAUAUUCUUUCUCGAUAUCAUAUUAAUCUUU	6.48
Ie_S2_P3E.2_K3.1_C3.2_H3.1_A3.1_F3.1_[+8TTC]_T3.2 (ssRNA) RNA: UUUGAUUAAUAUGAUAUCGUUCUUUCUCUUGUAUAUAUUCUAUUCUUUCUCGAUAUCAUAUUAAUCUUU	2.96
Ie_S2_P3E.2_K3.1_C3.2_H3.1_A3.1_F3.1_[+8CTC]_T3.2 (ssRNA) RNA: UUUGAUUAAUAUGAUAUCGUUCUUUCUCUUGUAUAUACUCUAUUCUUUCUCGAUAUCAUAUUAAUCUUU	5.33
